Measured values: publication PMC6393240, “DNA replication initiation in Bacillus subtilis: structural and functional characterization of the essential DnaA–DnaD interaction” (Nucleic Acids Research, 2018)

B4: DnaA domain I (residues 1–81) of Bacillus subtilis DnaA (domain or fragment, UniProt P05648 1-81, looked up)
chain: MENILDLWNQALAQIEKKLSKPSFETWMKSTKAHSLQGDTLTITAPNEFARDWLESRYLHLIADTIYELTGEELSIKFVIP
notes: DnaA, Bacillus subtilis, domain I, residues 1-81; After thrombin cleavage a residual N-terminal Gly-Ser-His leader remains; 15N-labelled (or 13C/15N) where it is the observed partner in NMR, unlabelled in the reverse titration; also called N-terminal domain I of DnaA; DnaA NTD; not shown: His tag, N-terminal, cleaved

Columns and labels:
[1] = molecular target: DnaA(N191C), labelled with Cy3B or Atto647N (Bacillus subtilis) (UniProt P05648)
[2] = molecular target: DnaA(N191C), labelled with Cy3B or Atto647N (Bacillus subtilis) (UniProt P05648); remark: listed apart in the source
[3] = molecular target: the molecule itself; experiment: cross-linking; BMOE (2 mM) cross-linking of 1.5 μM DnaA(N191C/A198C) with 3 nM 819 bp DNA, 2 mM ATP, 37°C; SDS-PAGE, Coomassie
[4] = molecular target: T1, DnaD DDBH2 domain (residues 129–232) of Bacillus subtilis DnaD (Bacillus subtilis, UniProt P39787 129-232); experiment: NMR titration; reverse titration: unlabelled DnaA domain I titrated into 15N-labelled DnaD DDBH2 (100 μM) up to 8:1 excess; 50 mM potassium phosphate pH 7.4, 100 mM NaCl; 25°C; KD averaged over five residues; conditions: both partners purified
T1 construct: DnaD, Bacillus subtilis, DDBH2 domain, residues 129-232; A residual N-terminal Gly-Ser-His remains after thrombin cleavage; 15N-labelled in the reverse titration; also called C-terminal DDBH2 domain; not shown: His tag, N-terminal, cleaved
T1 sequence (looked up): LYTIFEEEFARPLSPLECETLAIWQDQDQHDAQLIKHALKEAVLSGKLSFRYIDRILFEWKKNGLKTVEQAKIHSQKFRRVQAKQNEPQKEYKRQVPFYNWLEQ

[5] = molecular target: T1, DnaD DDBH2 domain (residues 129–232) of …; experiment: NMR titration; 1H-15N HSQC, chemical shift perturbations; unlabelled DnaD DDBH2 (129-232 or 129-196) titrated into 15N-labelled DnaA domain I (100 μM) up to 8:1 excess; 50 mM potassium phosphate pH 7.4, 100 mM NaCl; 25°C; KD averaged over five residues; conditions: both partners purified
[6] = molecular target: B4; experiment: as above; conditions: both partners purified
[7] = molecular target: the molecule itself; experiment: FRET or BRET; single-molecule FRET, confocal, room temperature; 1.5 μM DnaA (1:1:2 Cy3B-labelled: Atto647N labelled: un-labelled) with 3 nM 819 bp oriC DNA fragment and 2 mM ATP, 37°C 15 min; measured at ∼100 pM DnaA in imaging buffer

B1: DnaD, full length, Bacillus subtilis (natural protein)
chain: MKKQQFIDMQEQGTSTIPNLLLTHYKQLGLNETELILLLKIKMHLEKGSYFPTPNQLQEGMSISVEECTNRLRMFIQKGFLFIEECEDQNGIKFEKYSLQPLWGKLYEYIQLAQNQTQERKAEGEQKSLYTIFEEEFARPLSPLECETLAIWQDQDQHDAQLIKHALKEAVLSGKLSFRYIDRILFEWKKNGLKTVEQAKIHSQKFRRVQAKQNEPQKEYKRQVPFYNWLEQ
- single-molecule FRET of Cy3B/Atto647N-labelled DnaA–DNA filaments: apparent FRET efficiency E* with DnaD (24 μM) added before or after DnaA; E* ∼0.7 without DnaD [1]: 0.5

B2: DnaD196, truncated DnaD lacking the C-terminal residues 197–232 (domain or fragment)
chain: MKKQQFIDMQEQGTSTIPNLLLTHYKQLGLNETELILLLKIKMHLEKGSYFPTPNQLQEGMSISVEECTNRLRMFIQKGFLFIEECEDQNGIKFEKYSLQPLWGKLYEYIQLAQNQTQERKAEGEQKSLYTIFEEEFARPLSPLECETLAIWQDQDQHDAQLIKHALKEAVLSGKLSFRYIDRILFEWKKNGLKTV
- single-molecule FRET of labelled DnaA–DNA filaments: apparent FRET efficiency E* with DnaD196 (24 μM); E* ∼0.7 in its absence [2]: 0.5

B3: DnaA(N191C/A198C) (natural protein, Bacillus subtilis, UniProt P05648 1-446, looked up)
chain: MENILDLWNQALAQIEKKLSKPSFETWMKSTKAHSLQGDTLTITAPNEFARDWLESRYLHLIADTIYELTGEELSIKFVIPQNQDVEDFMPKPQVKKAVKEDTSDFPQNMLNPKYTFDTFVIGSGNRFAHAASLAVAEAPAKAYNPLFIYGGVGLGKTHLMHAIGHYVIDHNPSAKVVYLSSEKFTNEFICSIRDNKCVDFRNRYRNVDVLLIDDIQFLAGKEQTQEEFFHTFNTLHEESKQIVISSDRPPKEIPTLEDRLRSRFEWGLITDITPPDLETRIAILRKKAKAEGLDIPNEVMLYIANQIDSNIRELEGALIRVVAYSSLINKDINADLAAEALKDIIPSSKPKVITIKEIQRVVGQQFNIKLEDFKAKKRTKSVAFPRQIAMYLSREMTDSSLPKIGEEFGGRDHTTVIHAHEKISKLLADDEQLQQHVKEIKEQLK
notes: DnaA, Bacillus subtilis, double cysteine mutant N191C/A198C; also called DnaA(N191C/A198C) mutant protein
- binding result [3]: binds

Binder: B4
- Kd [4]: 665 ± 251 µM
- Kd [5]: 768 ± 168 µM

B5: Truncated DnaD DDBH2 domain (residues 129–196) (domain or fragment, Bacillus subtilis, UniProt P39787 129-196, looked up)
chain: LYTIFEEEFARPLSPLECETLAIWQDQDQHDAQLIKHALKEAVLSGKLSFRYIDRILFEWKKNGLKTV
notes: DnaD, Bacillus subtilis, DDBH2 domain truncated at the C-terminus, residues 129-196; Made from the DDBH2 (129-232) construct by Q5 site directed mutagenesis; A residual N-terminal Gly-Ser-His remains after thrombin cleavage; also called DnaD DDBH2 domain truncation; truncated DDBH2; not shown: His tag, N-terminal, cleaved
- binding result [6]: binds

B6: DnaA(A198C), labelled with Cy3B or Atto647N (natural protein, Bacillus subtilis, UniProt P05648 1-446, looked up)
chain: MENILDLWNQALAQIEKKLSKPSFETWMKSTKAHSLQGDTLTITAPNEFARDWLESRYLHLIADTIYELTGEELSIKFVIPQNQDVEDFMPKPQVKKAVKEDTSDFPQNMLNPKYTFDTFVIGSGNRFAHAASLAVAEAPAKAYNPLFIYGGVGLGKTHLMHAIGHYVIDHNPSAKVVYLSSEKFTNEFINSIRDNKCVDFRNRYRNVDVLLIDDIQFLAGKEQTQEEFFHTFNTLHEESKQIVISSDRPPKEIPTLEDRLRSRFEWGLITDITPPDLETRIAILRKKAKAEGLDIPNEVMLYIANQIDSNIRELEGALIRVVAYSSLINKDINADLAAEALKDIIPSSKPKVITIKEIQRVVGQQFNIKLEDFKAKKRTKSVAFPRQIAMYLSREMTDSSLPKIGEEFGGRDHTTVIHAHEKISKLLADDEQLQQHVKEIKEQLK
modifications: Cy3B-maleimide or Atto647N-maleimide on the single cysteine A198C (mixed 1:1:2 Cy3B-labelled: Atto647N labelled: un-labelled)
notes: DnaA, Bacillus subtilis, single cysteine mutant A198C; Printed once as DnaA^N198C and once as DnaA^A19C in the methods (misprints)
- binding result [7]: binds
